According to patent US20210324359A1, “USE OF GRAM-NEGATIVE LYSIN-ANTIMICROBIAL PEPTIDE (AMP) POLYPEPTIDE CONSTRUCTS IN TREATING ENDOCARDITIS” (priority 2020, published 2021):

Experiments:
P. aeruginosa isolates = assay: MIC against a range of isolates in CAA + […] human serum (Table 11); format: cell-based, Pseudomonas aeruginosa
P. aeruginosa = assay: MIC, modified CLSI broth microdilution in CAA medium without or with […] human serum (Table 4); format: cell-based, Pseudomonas aeruginosa; on CAA/HuS MIC: CAA supplemented with 2.5% human serum
Source text: 2015. […] Clinical and Laboratory Standards Institute, Wayne, Pa.

P. aeruginosa strains = assay: Checkerboard synergy with meropenem in 25% CAA and […] human serum (Table 16); format: cell-based, Pseudomonas aeruginosa; settings: for FICI value (Run #1), with meropenem / FICI value (Run #2), with meropenem: 25% CAA and […] human serum
[1] = system: P. aeruginosa strain WC-453; assay: Time-kill assay in HEPES or CAA with 25% human serum (Tables 7, 8); format: cell-based, Pseudomonas aeruginosa
Description: Exponential phase bacteria were then pelleted and resuspended in 1/5 culture volume of 25 mM HEPES, pH 7.4 before a final adjustment to an optical density corresponding to a McFarland value of 0.5. […] All treatments were incubated at 37° C. with aeration. At time points before the addition of lysin (or buffer control) and at 1 hour and 3 hours intervals thereafter, culture samples were removed for quantitative plating on CAA agar plates.

[2] = system: Pseudomonas aeruginosa strain CFS-1292 (meropenem resistant); assay: MIC in 25% CAA alone, with […] human serum or […] SURVANTA (Table 13); format: cell-based
Description: (§1) Materials and methods: MICs were determined by broth microdilution in media supplemented with human serum and pulmonary surfactant ([…]®; Myoderm Clinical Supplies). Minimal biofilm eradicating concentrations (MBECs) were determined using standard methods. […] Fluorescence microscopy was performed after LIVE/DEAD staining (ThermoFisher) and TEM was performed.

[3] = system: Pseudomonas aeruginosa strain CFS-1292 (meropenem resistant); settings: strain CFS-1292; no added cations
Description: The activity of selected GN lysins and constructs in the presence of divalent cations was evaluated, and the impact of divalent cations at physiological concentrations was examined in the MIC assay format.

[4] = system: outer membrane of P. aeruginosa (CFS 1292); assay: N-phenyl-1-napthylamine (NPN) uptake assay, outer membrane destabilization (Table 15); format: cell-based, Pseudomonas aeruginosa; settings: NPN fluorescence, buffer = 100, lysin 100 μg/well
Description: The ability of gram-negative lysins to destabilize the outer membrane of P. aeruginosa was evaluated through the use of an N-phenyl-1-napthylamine (NPN) uptake assay. […] NPN was added to a final concentration of […]. […] Changes in fluorescence were recorded (excitation 1=350 nm; emission 1=420 nm) over two hours.

[5] = system: carbapenem-resistant P. aeruginosa strains; assay: Resensitization of carbapenem-resistant strains, combinations with imipenem or meropenem (Tables 18-22); format: cell-based, Pseudomonas aeruginosa; settings: for FICI: isolate WC-452
Description: Such resensitization may be determined by combining the present lysins or lysin-AMP polypeptide constructs with an antibiotic in a checkerboard assay as described herein. Antibiotic-resistant bacteria, such as carbapenem-resistant P. aeruginosa, are added to the lysin or lysin-AMP polypeptide construct combination. […] See Clinical and Laboratory Standards Institute (CLSI), CLSI. […] M100 Performance Standards for Antimicrobial Susceptibility Testing; 29th Edition. Clinical and Laboratory Standards Institute, Wayne, Pa., which is herein incorporated by reference in its entirety.
Up to seven carbapenem-resistant isolates were assessed. […] See Clinical and Laboratory Standards Institute (CLSI), CLSI. […] M100 Performance Standards for Antimicrobial Susceptibility Testing; 29th Edition. Clinical and Laboratory Standards Institute, Wayne, Pa.

[6] = system: Pseudomonas aeruginosa biofilm; assay: MBEC in CAA supplemented with […] human serum (Table 14); format: cell-based
Description: (§2) Biofilms are then washed and treated with e.g., a 2-fold dilution series of the lysin in TSBg at e.g., 37° C. for 24 hours. After treatment, wells are washed, air-dried at e.g., 37° C. and stained with e.g., 0.05% crystal violet for 10 minutes.
as §1

[7] = system: biofilms formed by P. aeruginosa strain ATCC 17646; settings: strain ATCC 17646 biofilm
Description: as §2

B1: GN351: lysin-AMP construct: TAGGTAGG linker and amurin peptide Ecp2 C-terminal to GN316 lysin (SEQ ID NO: 32) (protein)
chain: MAILKIGSKGLEVKNLQTSLNKIGFNLVADGIFGKATDNAVRAVQAGAGLVVDGIAGPKTMYAIRNAGESHQDHLTEADLIDAARELSVDLASIKAVNQVESRGTGFTKSGKIKTLFERHIMYKKLNAKFGQAKANALAQLYPTLVNAKAGGYTGGDAELERLHGAIAIDKDCAYESASYGLFQIMGFNCVICGYDNAEEMFNDFLTGERAQLMAFVKFIKADANLWKALKDKNWAEFARRYNGPAYAQNQYDTKLAAAYKSFSTAGGTAGGARSRRRMSKRSSRRSFRKYAKSHKKNFKARSMRGGIRL
activity against P. aeruginosa isolates in human serum or SURVANTA (P. aeruginosa isolates; Tables 11 and 12): active against a variety of P. aeruginosa isolates
MIC, CAA + […] Human Serum (P. aeruginosa isolates; strain CFS 1109 (ATCC 17646)): 1 µg/mL
MIC, CAA + […] Human Serum (P. aeruginosa isolates; strain CFS 1292): 1 µg/mL
MIC, CAA + […] Human Serum (P. aeruginosa isolates; strain CFS1539 (PA1)): 0.5 µg/mL
MIC, CAA + […] Human Serum (P. aeruginosa isolates; strain CFS 1540 (PA2)): 0.5 µg/mL
MIC, CAA + […] Human Serum (P. aeruginosa isolates; strain CFS 1541 (PA3)): 0.5 µg/mL
MIC, CAA + […] Human Serum (P. aeruginosa isolates; strain CFS 1557 (PA19)): 4 µg/mL
MIC, CAA + […] Human Serum (P. aeruginosa isolates; strain CFS 1558 (PA20)): 1 µg/mL
MIC, CAA + […] Human Serum (P. aeruginosa isolates; strain CFS 1559 (PA21)): 2 µg/mL
MIC, CAA + […] Human Serum (P. aeruginosa isolates; strain CFS 1560 (PA22)): 2 µg/mL
MIC, CAA + […] Human Serum (P. aeruginosa isolates; strain CFS 1561 (PA23)): 2 µg/mL
MIC, CAA + […] Human Serum (P. aeruginosa isolates; strain CFS 1562 (PA24)): 2 µg/mL
MIC, CAA + […] Human Serum (P. aeruginosa isolates; strain CFS 1596 (PA26)): 1 µg/mL
MIC, CAA + […] Human Serum (P. aeruginosa isolates; strain CFS 1597 (PA27)): 0.5 µg/mL
MIC, CAA + […] Human Serum (P. aeruginosa isolates; strain CFS 1669 (PA41)): 1 µg/mL
MIC, CAA + […] Human Serum (P. aeruginosa isolates; strain CFS 1674 (PA46)): 1 µg/mL
MIC, CAA + […] Human Serum (P. aeruginosa isolates; strain CFS 1675 (PA47)): 0.5 µg/mL
MIC, CAA + […] Human Serum (P. aeruginosa isolates; strain CFS 1766 (ATCC 27853)): 2 µg/mL
CAA MIC (P. aeruginosa; CAA medium, no human serum): 8000 µg/mL
CAA/HuS MIC (P. aeruginosa; CAA supplemented with […] human serum): 125 µg/mL
synergy with meropenem (P. aeruginosa strains; FICI less than or equal to 0.5 = potent synergy): exhibited synergy with meropenem
FICI value (Run #1), with meropenem (P. aeruginosa strains; strain CFS 1292): 0.1875
FICI value (Run #2), with meropenem (P. aeruginosa strains; strain CFS 1292): 0.219
FICI value (Run #1), with meropenem (P. aeruginosa strains; strain CFS 1557 (PA19)): 0.25
FICI value (Run #2), with meropenem (P. aeruginosa strains; strain CFS 1557 (PA19)): 0.292
FICI value (Run #1), with meropenem (P. aeruginosa strains; strain CFS 1558 (PA20)): 0.1562
FICI value (Run #2), with meropenem (P. aeruginosa strains; strain CFS 1558 (PA20)): 0.177
FICI value (Run #2), with meropenem (P. aeruginosa strains; strain CFS 1559 (PA21)): 0.177
FICI value (Run #2), with meropenem (P. aeruginosa strains; strain CFS 1560 (PA22)): 0.323
FICI value (Run #2), with meropenem (P. aeruginosa strains; strain CFS 1561 (PA23)): 0.240
FICI value (Run #2), with meropenem (P. aeruginosa strains; strain CFS 1562 (PA24)): 0.177
FICI value (Run #2), with meropenem (P. aeruginosa strains; strain CFS 1766 (ATCC 27853)): 0.109
bactericidal activity (CFU decrease of 3-Log10, 3 hours after the addition of lysin) ([1]; 10 μg/mL, enumerated lysins in CAA/HuS, general statement for HEPES and CAA/HuS): bactericidal activity
CAA/HuS (Log10 CFU/mL), 1 hr ([1]; CAA + 25% human serum, lysin 10 μg/ml, 1 hr, WC-453): 4.6 Log10 CFU/mL
CAA/HuS (Log10 CFU/mL), 3 hr ([1]; CAA + 25% human serum, lysin 10 μg/ml, 3 hr, WC-453): <3.7 Log10 CFU/mL
MIC in […] Survanta [2]: 4 µg/mL
MIC in human serum ([…]) in CAA [2]: 0.0625 µg/mL
activity in human serum and pulmonary surfactant [2]: active in human serum and pulmonary surfactant
25% CAA MIC ([2]; media alone): 1
MIC in 25% CAA [3]: 1 µg/mL
% RFU ([4]; 5 minutes): 381 % RFU
% RFU ([4]; 10 minutes): 406 % RFU
% RFU ([4]; 20 minutes): 407 % RFU
% RFU ([4]; 40 minutes): 386 % RFU
% RFU ([4]; 60 minutes): 383 % RFU
% RFU ([4]; 100 minutes): 338 % RFU
resensitization to carbapenems in synergistic combinations ([5]; imipenem (IPM) and meropenem (MEM), carbapenem-resistant isolates): reductions of IPM and MEM MICS to below breakpoint values
FICI ([5]; lysin + imipenem): 0.156
FICI ([5]; lysin + meropenem): 0.188
Antibiotic MIC / Lysin MIC, Alone ([5]; vs. WC-452 (Table 22)): 1
MBEC in CAA supplemented with […] human serum [6]: 0.5 µg/mL
MBEC [7]: 1 µg/mL
